According to patent publication US8889621B2, “Inhibiting binding of FGF23 to the binary FGFR-Klotho complex for the treatment of hypophosphatemia” (New York University, priority 2009, dated 2014):

Biological target: T1, binary FGFR1c-Klotho complex (UniProt O35082+P11362)
T1 construct: The ectodomain of murine Klotho (A35 to K982) was purified from culture media; FLAG (C); made in house; host or cells: E. coli (FGFR1c, FGF23); HEK293 (Klotho ectodomain)
T1 sequence (P11362 142-365): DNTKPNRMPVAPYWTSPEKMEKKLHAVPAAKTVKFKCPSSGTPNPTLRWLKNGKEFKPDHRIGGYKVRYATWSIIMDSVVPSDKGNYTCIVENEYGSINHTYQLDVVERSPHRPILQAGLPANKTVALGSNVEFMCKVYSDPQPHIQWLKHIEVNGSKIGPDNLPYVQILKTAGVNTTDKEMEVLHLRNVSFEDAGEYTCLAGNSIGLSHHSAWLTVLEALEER
T1 sequence (O35082 35-982): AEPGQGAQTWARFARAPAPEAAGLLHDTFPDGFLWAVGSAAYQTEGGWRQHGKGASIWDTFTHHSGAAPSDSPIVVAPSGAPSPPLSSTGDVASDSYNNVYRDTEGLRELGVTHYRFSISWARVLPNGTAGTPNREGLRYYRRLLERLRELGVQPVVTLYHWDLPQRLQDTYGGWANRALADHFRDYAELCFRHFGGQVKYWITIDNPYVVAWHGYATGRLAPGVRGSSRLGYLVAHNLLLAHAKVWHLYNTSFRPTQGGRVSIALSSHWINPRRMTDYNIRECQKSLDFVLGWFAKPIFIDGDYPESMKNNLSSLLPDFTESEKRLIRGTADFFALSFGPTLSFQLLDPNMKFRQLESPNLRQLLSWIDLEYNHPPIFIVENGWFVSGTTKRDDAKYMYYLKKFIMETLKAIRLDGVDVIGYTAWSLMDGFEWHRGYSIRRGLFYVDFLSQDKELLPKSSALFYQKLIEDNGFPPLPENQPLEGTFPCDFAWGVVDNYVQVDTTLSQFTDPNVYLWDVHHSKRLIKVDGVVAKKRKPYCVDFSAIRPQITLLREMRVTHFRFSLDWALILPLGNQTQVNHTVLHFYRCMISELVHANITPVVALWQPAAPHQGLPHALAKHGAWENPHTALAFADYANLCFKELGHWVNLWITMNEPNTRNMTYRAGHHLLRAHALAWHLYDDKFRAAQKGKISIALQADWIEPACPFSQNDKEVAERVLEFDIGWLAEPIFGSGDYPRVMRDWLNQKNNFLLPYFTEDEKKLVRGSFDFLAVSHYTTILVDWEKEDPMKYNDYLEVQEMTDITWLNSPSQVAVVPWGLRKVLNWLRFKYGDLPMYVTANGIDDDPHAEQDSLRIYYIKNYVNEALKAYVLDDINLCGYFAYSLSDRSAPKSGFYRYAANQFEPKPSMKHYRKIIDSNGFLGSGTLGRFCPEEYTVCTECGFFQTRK
Assay: SPR: binary FGFR1c-Klotho complex passed over immobilized FGF23 protein/peptide
Assay type: binding, human FGFR1c, murine Klotho
Method: A variety of interaction or binding assays can be used to determine that an agent specifically binds the binary FGFR-Klotho complex, such as the SPR interaction analysis described below. One aspect of the present invention utilizes SPR analysis of FGF23 protein/peptide binding to the binary FGFR-Klotho complex. The SPR analysis involved FGF23 protein/peptide immobilization by amine coupling on flow channels of a chip. Proteins were injected over the chip at a flow rate of 50 μl min^−1, and at the end of each protein injection (180 s), HBS-EP buffer (10 mM HEPES-NaOH, pH 7.4, 150 mM NaCl, 3 mM EDTA, 0.005% (v/v) polysorbate 20; 50 μl min^−1) was flowed over the chip to monitor dissociation for 180 s. The chip surface was then regenerated by injecting 50 μl of 2.0 M NaCl in 10 mM sodium acetate, pH 4.5. […] For each protein injection over a FGF23 protein/peptide chip, the nonspecific responses from the FHF1B control flow channel were subtracted from the responses recorded for the flow channel onto which FGF23 protein/peptide was immobilized. […] As a control, competition of FGF23 C-terminal tail peptide in solution with immobilized FGF23 C-terminal tail peptide for binding to the binary FGFR1c-Klotho complex was analyzed. […]

B1: FGF23^28-251: human FGF23 (A28 to I251), bioactive full-length ligand expressed in E. coli (protein, listed as Homo sapiens)
chain: ASPLLGSSWGGLIHLYTATARNSYHLQIHKNGHVDGAPHQTIYSALMIRSEDAGFVVITGVMSRRYLCMDFRGNIFGSHYFDPENCRFQHQTLENGYDVYHSPQYHFLVSLGRAKRAFLPGMNPPPYSQFLSRRNEIPLIHFNTPIPRRHTRSAEDDSERDPLNVLKPRARMTPAPASCSQELPSAEDNSPMASDPLGVVRGGRVNTHAGGTGPEGCRPFAKFI
- binding to the binary FGFR1c-Klotho complex: bound to the FGFR1c-Klotho complex

B2: FGF23^180-251: 72-amino acid C-terminal tail of human FGF23 (S180 to I251), expressed in E. coli (protein, listed as Homo sapiens)
chain: SAEDDSERDPLNVLKPRARMTPAPASCSQELPSAEDNSPMASDPLGVVRGGRVNTHAGGTGPEGCRPFAKFI
- binding to the binary FGFR1c-Klotho complex: avidly bound
